The values below come from patent US20060165695A1 (Kyowa Kirin, published 2006).

Assay [1] deals with T1, hIGF-I partial peptide p1-18 (human).
T1 peptide: GPETLSGAELVDALQFVC
The experiment in a line: competitive ELISA: KM1468 (4.0 µg/ml) on immobilised methylated BSA-hIGF-I, peptide as competitor.

Assay [2] addresses T2, hIGF-I partial peptide p29-41 (human).
T2 peptide: CTGYGSSSRRAPQT
Described as above.

Assay [3] concerns the target T3, hIGF-I partial peptide p24-35 (human).
T3 peptide: CYFNKPTGYGSSS
Described as above.

The target in assay [4] is T4, hIGF-I partial peptide p52-70 (human).
T4 peptide: CDLRRLEMYAAPLKPAKSA
Described as above.

Assay [5] addresses T5, hIGF-I partial peptide p41-56C (human).
T5 peptide: CTGIVDECCFRSCDLRR
The description is as above.

Assay [6] deals with T6, hIGF-I partial peptide p61-70 (human).
T6 peptide: CAPLKPAKSA
The assay is described as above.

Assay [7] addresses T7, hIGF-I partial peptide p14-30 (human).
T7 peptide: CLQFVAGDRGFYFNKPTG
The assay is described as above.

In assay [8] the target is T8, hIGF-I partial peptide p53-61 (human).
T8 peptide: DLRRLEMYC
The description is as above.

Assay [9] deals with T9, hIGF-I partial peptide p36-47 (human).
T9 peptide: RRAPQTGIVDEC
The description is as above.

The target in assay [10] is T10, hIGF-I partial peptide p41-56 (human).
T10 peptide: CTGIVDEAAFRSADLRR
The assay is described as above.

The target in assay [11] is T11, human insulin-like growth factor II (hIGF-II) (human, UniProt P01344 25-91).
T11 construct: In the ELISA it was immobilised as a conjugate with methylated BSA; In SPR it was amine-coupled to the chip; also called human IGF-II; methylated BSA-hIGF-II (immobilised conjugate)
T11 sequence (P01344 25-91 limits assumed): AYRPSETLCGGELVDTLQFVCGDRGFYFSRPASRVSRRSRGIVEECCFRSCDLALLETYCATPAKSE
The experiment in a line: SPR (Biacore 2000), hIGF-II amine-coupled to CM-5 chip, antibody as analyte, 25 °C; KA=Kass/Kdiss. Here is the method: (§1) In order to analyze binding activity of the anti-hIGF antibody KM1468 to an antigen hIGF-I or hIGF-II, binding strengths of the anti-hIGF antibody KM1468, a commercially available anti-hIGF-I antibody sm1.2 and a commercially available anti-hIGF-II antibody S1F2 to hIGF-I and hIGF-II were measured in the following manner using the biosensor Biacore 2000 (manufactured by BIACORE) use of a surface plasmon resonance. HBS-EP (10 mM HEPES, 150 mM NaCl, 3 mM EDTA, 0.005% Tween 20, pH 7.4) (manufactured by BIACORE) was used for the dilution of analytes and as the reaction buffer.
(§2) The reaction was carried out at 25° C. Association rate constant Kass and dissociation constant Kdiss were calculated from the binding reaction curves at respective concentrations, and the binding constant KA (M⁻¹) of each of these antibodies was calculated. The binding constant KA is calculated by KA=Kass/Kdiss.
For orientation: SPR reads the build-up and loss of mass on a sensor chip optically.

The target in assay [12] is T12, human insulin-like growth factor I (hIGF-I) (human, UniProt P05019 49-118).
T12 construct: mature; In the ELISAs it was immobilised as a conjugate with methylated BSA; In SPR it was amine-coupled to the chip; also called human IGF-I; recombinant hIGF-I
T12 sequence (P05019 49-118): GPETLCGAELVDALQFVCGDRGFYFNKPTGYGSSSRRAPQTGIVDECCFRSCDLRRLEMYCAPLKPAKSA
The experiment in a line: SPR (Biacore 2000), hIGF-I amine-coupled to CM-5 chip, antibody as analyte, 25 °C; KA=Kass/Kdiss. Here is the method:
as §1, §2

Assay [13] concerns the target T13, human insulin (manufactured by Wako Pure Chemical Industries) (human, UniProt P01308 25-54; P01308 90-110).
T13 construct: Bought reagent
The experiment in a line: competitive ELISA: KM1468 (0.6 µg/ml) on immobilised methylated BSA-hIGF-I or methylated BSA-hIGF-II, insulin as competitor. From the text: Cross reactivity of the purified anti-hIGF antibody KM1468 with hIGF-II and human insulin was examined by the competitive ELISA shown below. As the antigens, hIGF-I (manufactured by Pepro Tech), hIGF-II (manufactured by Pepro Tech) and human insulin (manufactured Wako Pure Chemical Industries) were used.
The methylated BSA-hIGF-I antigen prepared in Example 1(1) or a methylated BSA-hIGF-II antigen prepared in the same manner as in Example 1(1) was immobilized on a plate in accordance with the method shown in Example 1(4), at a concentration of 0.1 μg/ml in the case of the methylated BSA-hIGF-I antigen, or at a concentration of 1.0 μg/ml in the case of the methylated BSA-hIGF-II antigen, KM1468 diluted to 0.6 μg/ml was dispensed therein in 25 μl/well portions, and then each of 4-fold serial dilutions of hIGF-I, hIGF-II or human insulin prepared by starting from 20 μg/ml was dispensed in 25 μl/well portions, mixed and allowed to react at room temperature for 1 hour. After the reaction and subsequent washing with Tween-PBS, 1,000 times-diluted peroxidase-labeled rabbit anti-rat Ig antibody (manufactured by DAKO) was added in 50 μl/well portions as the secondary antibody in the case of the anti-hIGF antibody KM1468. […] The results are represented by relative values (%) wherein OD415 when an antibody alone is added is defined as 100.
For orientation: ELISA stands for enzyme-linked immunosorbent assay.

Assay [14] deals with T12, human insulin-like growth factor I …. The experiment in a line: SPR (Biacore 2000), ratio of KA values. Here is the method: as §1, §2
The target in assay [15] is T11, human insulin-like growth factor II …. The experiment in a line: SPR (Biacore 2000), ratio of KA values. Here is the method:
as §1, §2

T13 sequence (P01308 25-54 limits assumed, chain 1 of 2): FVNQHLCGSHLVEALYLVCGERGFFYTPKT
T13 sequence (P01308 90-110 limits assumed, chain 2 of 2): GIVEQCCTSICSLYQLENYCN

B1: anti-hIGF rat monoclonal antibody KM1468 (antibody, V domains shown)
VH: EVHLVESGGGLVQPGRSLKLSCAASGFTFSNYYMTWVRQAPTKGLEWVAYISSGGGSTYYRDSVKGRFTISRDNAKSTLYLQMDSLRSEDTATYYCTTEDYGYWFAYWGQGTLVTVSS
VL: EIVLTQSPTTMAASPGEKVTITCRASSSVSYMHWFQQKSGTSPKPWIYGTSKLASGVPDRFSGSGSGTSYSLTISSMEAEDAATYYCLQRSSYPPTFGAGTKLELKR
notes: Rat IgG2b with kappa L chain, purified from ascites; The ranges 20-137 and 23-129 are counted from the first residue of the entry; also called anti-hIGF antibody KM1468; anti-hIGF rat antibody KM1468
As to B1, the binding result in assay [1], in assay [2], in assay [3], in [4], in [5] and in assay [6] was “no binding” in each case. Moreover, the binding result in assay [7], in assay [8], in assay [9], in assay [10] and in [13] was “no binding” throughout. Besides, the Ka in assay [11] stood at 8.63e+09 M⁻¹; in assay [12] it was 7.86e+09 M⁻¹. In addition, the “fold KA versus S1F2” value is approximately 18 fold in assay [14] and approximately 3.6 fold in assay [15]. In addition, the “fold KA versus sm1.2” value in assay [14] is approximately 42 fold; in [15], approximately 120 fold.
